Starred links: 1 amine or outer side, 2 acyl side, 3 side chain; linkers in the order of their positions; H or OH if unused. Non-standard residues stand in square brackets, D forms with d. No end group written: not given here. *: point of attachment. Phe(4-CH2SO3H) = N[C@@H](Cc1ccc(CS(=O)(=O)O)cc1)C(=O)O; C20 diacid = O=C(O)CCCCCCCCCCCCCCCCCCC(=O)*; sY = N[C@@H](Cc1ccc(OS(=O)(=O)O)cc1)C(=O)O; C18 diacid = O=C(O)CCCCCCCCCCCCCCCCC(=O)*; γGlu = O=C(O)[C@H](CCC(=O)[*:2])N[*:1]; βAsp = O=C(O)[C@H](CC(=O)[*:2])N[*:1]; Met(O2) = CS(=O)(=O)CC[C@H](N)C(=O)O; NMeF = CN[C@@H](Cc1ccccc1)C(=O)O; dNMeD = CN[C@H](CC(=O)O)C(=O)O; Nle = CCCC[C@H](N)C(=O)O; AEEA = NCCOCCOCC(=O)O
Key:
[1] = molecular target: T1, human cholecystokinin-1 receptor (human, UniProt P32238 1-428); experiment: SPA competition vs [125I]-CCK-8s, membranes
T1 construct: whole, on cells; also called CCK-1R; CCK-1 receptor
T1 sequence (looked up): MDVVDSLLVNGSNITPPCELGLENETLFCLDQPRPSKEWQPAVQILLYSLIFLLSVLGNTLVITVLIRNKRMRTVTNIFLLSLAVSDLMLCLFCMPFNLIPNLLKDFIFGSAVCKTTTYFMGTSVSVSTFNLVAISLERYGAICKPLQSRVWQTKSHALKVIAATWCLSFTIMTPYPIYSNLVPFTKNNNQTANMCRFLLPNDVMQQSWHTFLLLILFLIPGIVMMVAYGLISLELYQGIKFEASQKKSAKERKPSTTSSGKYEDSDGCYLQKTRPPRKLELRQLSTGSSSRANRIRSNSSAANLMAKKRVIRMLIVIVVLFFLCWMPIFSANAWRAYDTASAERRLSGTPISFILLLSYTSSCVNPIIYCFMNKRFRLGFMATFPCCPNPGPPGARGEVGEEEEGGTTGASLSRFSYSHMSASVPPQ
Protocol: (§1) CCK receptor binding assays were performed in 96-well Optiplates (Cat #6005290, PerkinElmer, Waltham, Mass., USA) in a total volume of 200 μl per well.
(§2) The plates were sealed and incubated in the dark at +22° C. for 2 hours on a IKA MTS plate shaker (IKA-Werke D-79219 Staufen) set at 300 rpm and thereafter centrifuged at 1500 rpm for 10 minutes in a Heraeus Multifuge 3s centrifuge. SPA bead light emission was measured in a TopCount NXT (PerkinElmer) for 2 min/well after a delay of 60 min.

[2] = molecular target: T1, human cholecystokinin-1 receptor; experiment: cell-based or functional assay
[3] = molecular target: T2, human cholecystokinin-2 receptor (human, UniProt P32239 1-447); experiment: cell-based or functional assay
T2 sequence (looked up): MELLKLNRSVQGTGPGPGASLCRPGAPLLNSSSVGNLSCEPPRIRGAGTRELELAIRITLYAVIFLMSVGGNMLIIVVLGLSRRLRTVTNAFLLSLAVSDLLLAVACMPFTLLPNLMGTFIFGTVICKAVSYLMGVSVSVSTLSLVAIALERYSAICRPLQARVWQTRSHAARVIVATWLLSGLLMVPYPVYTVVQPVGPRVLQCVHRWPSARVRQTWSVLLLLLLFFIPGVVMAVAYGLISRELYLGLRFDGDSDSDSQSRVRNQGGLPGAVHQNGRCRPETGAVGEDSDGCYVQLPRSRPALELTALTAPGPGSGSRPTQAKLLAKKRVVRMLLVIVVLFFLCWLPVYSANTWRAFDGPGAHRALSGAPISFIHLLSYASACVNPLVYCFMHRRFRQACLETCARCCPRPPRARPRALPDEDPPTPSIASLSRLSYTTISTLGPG

[4] = molecular target: T2, human cholecystokinin-2 receptor; experiment: SPA competition vs [125I]-CCK-8s, membranes
Protocol: as §1, §2

Binder	IC50 [1] [nM]	EC50 (CCK-1R) [2] [nM]	EC50 (CCK-2R) [3] [nM]	IC50 [4] [nM]
{C18 diacid-γGlu-AEEA-AEEA}-[βAsp][Phe(4-CH2SO3H)][Nle]GW[Nle][dNMeD][NMeF]-NH2 (SMILES CCCC[C@H](NC(=O)[C@H](Cc1ccc(CS(=O)(=O)O)cc1)NC(=O)C[C@H](NC(=O)COCCOCCNC(=O)COCCOCCNC(=O)CC[C@H](NC(=O)CCCCCCCCCCCCCCCCC(=O)O)C(=O)O)C(=O)O)C(=O)NCC(=O)N[C@@H](Cc1c[nH]c2ccccc12)C(=O)N[C@@H](CCCC)C(=O)N(C)[C@H](CC(=O)O)C(=O)N(C)[C@@H](Cc1ccccc1)C(N)=O, X = Nle or Nal)	0.063	0.36		
EGPWLEEEEEAYGWMDF (N-terminal pyroglutamic acid (pE, Pyr); C-terminal amide; Tyr non-sulfated)	340	530		
D[Phe(4-CH2SO3H)][Nle]GW[Nle][dNMeD][NMeF]-NH2 (N-terminus assumed; SMILES CCCC[C@H](NC(=O)[C@H](Cc1ccc(CS(=O)(=O)O)cc1)NC(=O)[C@@H](N)CC(=O)O)C(=O)NCC(=O)N[C@@H](Cc1c[nH]c2ccccc12)C(=O)N[C@@H](CCCC)C(=O)N(C)[C@H](CC(=O)O)C(=O)N(C)[C@@H](Cc1ccccc1)C(N)=O, X = Nle or Nal) [Asp-Phe(4-sulfomethyl)-Nle-Gly-Trp-Nle-DMeAsp-MePhe-amide]	0.046	0.25	> 1000	
{C18 diacid-γGlu-AEEA-AEEA}-[dD][Phe(4-CH2SO3H)][Nle]GW[Nle][dNMeD][NMeF]-NH2 (X = Nle or Nal)	0.072	0.37		
{C18 diacid}-GSSGSSD[sY]LGW[Nle][dNMeD][NMeF]-NH2 (SMILES CCCC[C@H](NC(=O)[C@H](Cc1c[nH]c2ccccc12)NC(=O)CNC(=O)[C@H](CC(C)C)NC(=O)[C@H](Cc1ccc(OS(=O)(=O)O)cc1)NC(=O)[C@H](CC(=O)O)NC(=O)[C@H](CO)NC(=O)[C@H](CO)NC(=O)CNC(=O)[C@H](CO)NC(=O)[C@H](CO)NC(=O)CNC(=O)CCCCCCCCCCCCCCCCC(=O)O)C(=O)N(C)[C@H](CC(=O)O)C(=O)N(C)[C@@H](Cc1ccccc1)C(N)=O, X = Nle or Nal; The Gly-Ser-Ser-Gly-Ser-Ser linker is written as part of the chain) [17-Carboxyheptadecanoyl-Gly-Ser-Ser-Gly-Ser-Ser-Asp-sTyr-Leu-Gly-Trp-Nle-DMeAsp-MePhe-amide]		0.61	17	370
{C18 diacid-γGlu-AEEA-AEEA}-D[Phe(4-CH2SO3H)][Nle]GW[Nle][dNMeD][NMeF]-NH2 (X = Nle or Nal)	0.26			
{C18 diacid-γGlu-AEEA-AEEA}-K[AEEA]D[Phe(4-CH2SO3H)][Nle]GW[Nle][dNMeD][NMeF]-NH2 (X = Nle or Nal)	0.081			7400
[βAsp][Phe(4-CH2SO3H)][Nle]GW[Nle][dNMeD][NMeF]-NH2 (N-terminus assumed; SMILES CCCC[C@H](NC(=O)[C@H](Cc1ccc(CS(=O)(=O)O)cc1)NC(=O)C[C@H](N)C(=O)O)C(=O)NCC(=O)N[C@@H](Cc1c[nH]c2ccccc12)C(=O)N[C@@H](CCCC)C(=O)N(C)[C@H](CC(=O)O)C(=O)N(C)[C@@H](Cc1ccccc1)C(N)=O, X = Nle or Nal) [bAsp-Phe(4-sulfomethyl)-Nle-Gly-Trp-Nle-DMeAsp-MePhe-amide]		0.19	> 1000	2900
[sY][Nle]GW[Nle][dNMeD][NMeF]-NH2 (N-terminus assumed; SMILES CCCC[C@H](NC(=O)[C@@H](N)Cc1ccc(OS(=O)(=O)O)cc1)C(=O)NCC(=O)N[C@@H](Cc1c[nH]c2ccccc12)C(=O)N[C@@H](CCCC)C(=O)N(C)[C@H](CC(=O)O)C(=O)N(C)[C@@H](Cc1ccccc1)C(N)=O, X = Nle or Nal) [sTyr-Nle-Gly-Trp-Nle-DMeAsp-MePhe-amide]	0.06	0.33	> 1000	
{C18 diacid-γGlu-AEEA-AEEA}-D[sY]KGW[Nle][dNMeD][NMeF]-NH2 (X = Nle or Nal)	0.099	0.36	310	
{C18 diacid-γGlu-AEEA-AEEA}-E[sY]LGW[Nle][dNMeD]F-NH2 (SMILES CCCC[C@H](NC(=O)[C@H](Cc1c[nH]c2ccccc12)NC(=O)CNC(=O)[C@H](CC(C)C)NC(=O)[C@H](Cc1ccc(OS(=O)(=O)O)cc1)NC(=O)[C@H](CCC(=O)O)NC(=O)COCCOCCNC(=O)COCCOCCNC(=O)CC[C@H](NC(=O)CCCCCCCCCCCCCCCCC(=O)O)C(=O)O)C(=O)N(C)[C@H](CC(=O)O)C(=O)N[C@@H](Cc1ccccc1)C(N)=O, X = Nle or Nal)		0.37	94	480
D[sY]KGW[Nle][dNMeD][NMeF]-NH2 (N-terminus assumed; SMILES CCCC[C@H](NC(=O)[C@H](Cc1c[nH]c2ccccc12)NC(=O)CNC(=O)[C@H](CCCCN)NC(=O)[C@H](Cc1ccc(OS(=O)(=O)O)cc1)NC(=O)[C@@H](N)CC(=O)O)C(=O)N(C)[C@H](CC(=O)O)C(=O)N(C)[C@@H](Cc1ccccc1)C(N)=O, X = Nle or Nal) [Asp-sTyr-Lys-Gly-Trp-Nle-DMeAsp-MePhe-amide]	0.03	0.26	> 1000	
{C20 diacid-γGlu-AEEA-AEEA}-E[sY]LGW[Nle][dNMeD][NMeF]-NH2 (SMILES CCCC[C@H](NC(=O)[C@H](Cc1c[nH]c2ccccc12)NC(=O)CNC(=O)[C@H](CC(C)C)NC(=O)[C@H](Cc1ccc(OS(=O)(=O)O)cc1)NC(=O)[C@H](CCC(=O)O)NC(=O)COCCOCCNC(=O)COCCOCCNC(=O)CC[C@H](NC(=O)CCCCCCCCCCCCCCCCCCC(=O)O)C(=O)O)C(=O)N(C)[C@H](CC(=O)O)C(=O)N(C)[C@@H](Cc1ccccc1)C(N)=O, X = Nle or Nal)			32	430
D[sY]AGW[Nle][dNMeD][NMeF]-NH2 (N-terminus assumed; SMILES CCCC[C@H](NC(=O)[C@H](Cc1c[nH]c2ccccc12)NC(=O)CNC(=O)[C@H](C)NC(=O)[C@H](Cc1ccc(OS(=O)(=O)O)cc1)NC(=O)[C@@H](N)CC(=O)O)C(=O)N(C)[C@H](CC(=O)O)C(=O)N(C)[C@@H](Cc1ccccc1)C(N)=O, X = Nle or Nal) [Asp-sTyr-Ala-Gly-Trp-Nle-DMeAsp-MePhe-amide]	0.055	0.16	> 1000	
D[sY]RGW[Nle][dNMeD][NMeF]-NH2 (X = Nle or Nal) [Asp-sTyr-Arg-Gly-Trp-Nle-DMeAsp-MePhe-amide]			910	1500
{C18 diacid-γGlu-AEEA-AEEA}-D[sY]LGW[Met(O2)][dNMeD][NMeF]-NH2	0.64	0.14	> 1000	
{C18 diacid-γGlu-AEEA-AEEA}-E[sY]LGWQ[dNMeD][NMeF]-NH2	0.097	0.22	> 1000	
E[sY]LGWQ[dNMeD][NMeF]-NH2 [Glu-sTyr-Leu-Gly-Trp-Gln-DMeAsp-MePhe-amide]	0.085		> 1000	

From patent US20170008928A1, “NOVEL PEPTIDES AND PEPTIDE DERIVATIVES AND USES THEREOF” (Novo Nordisk A/S, priority 2015, published 2017)
